What was measured:
[1] = molecular target: T1, human CD134 (full-length, on cells) (human, UniProt P43489 29-277); experiment: flow cytometry, PHA-stimulated human T lymphocytes
T1 construct: also called OX40; TNFRSF4
T1 sequence: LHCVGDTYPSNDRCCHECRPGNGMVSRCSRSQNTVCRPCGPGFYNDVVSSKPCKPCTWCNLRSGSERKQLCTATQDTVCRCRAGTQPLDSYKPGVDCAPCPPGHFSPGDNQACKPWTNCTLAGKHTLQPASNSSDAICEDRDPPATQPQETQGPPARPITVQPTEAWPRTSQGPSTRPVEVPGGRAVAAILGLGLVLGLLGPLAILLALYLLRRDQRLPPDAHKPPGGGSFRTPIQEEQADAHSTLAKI

[2] = molecular target: T1, human CD134 (full-length, on cells); experiment: flow cytometry, PHA-stimulated human T lymphocytes, two donors
Experimental: PHA-stimulated (at 10 μg/mL for 2 days; see above) human CD134 expressing T lymphocytes were generated. Cells were harvested and put at 1-2×10⁶ cells/mL in ice chilled PBS/BSA/NaN₃ supplemented with 10% HPS (blocking Fcγ receptors; BioWhittaker). […] After extensive washing in PBS/BSA/NaN₃, cells were subsequently incubated with 1:200 diluted PE-conjugated goat anti-mouse IgG antibodies (Jackson ImmunoResearch) for 30 minutes at 4° C. […] After extensive washing in PBS/BSA/NaN₃, cells were fixed in 2% formaldehyde in PBS/BSA/NaN₃ for 30 minutes at 4° C.

[3] = molecular target: T2, human fibronectin-derived control peptide (extra type III structural domain) (human); experiment: ELISA, plate coated with 10 ng/well control peptide, HRP goat anti-mouse IgG Fcγ, n=1
T2 construct: Synthesized by Pepscan Presto; coated on ELISA plates at 10 ng/well; also called ED1 peptide
T2 peptide: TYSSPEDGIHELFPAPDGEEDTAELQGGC
Experimental: (§1) Ninety six-wells flat-bottom ELISA plates (Corning) were coated with 10 ng/well human CD134-derived peptide (synthesized by Pepscan Presto, Lelystad, The Netherlands), which corresponded to amino acid sequence of truncated CRD3 A1-module-CRD4 subdomain A1-module (see SEQ ID NO. 38) or with 10 ng/well human fibronectin-derived control peptide (synthesized by Pepscan Presto, Lelystad, The Netherlands), which corresponded to amino acid sequence of extra type III structural domain (see SEQ ID NO. 37) in PBS o/n at 4° C. After extensive washing in PBS/0.05% Tween 20, plates were blocked in PBS/0.05% Tween 20/1% BSA fraction V (Roche) for 1 hour at RT. […] After extensive washing in PBS/0.05% Tween 20, binding of antibodies was determined with 1:5000 diluted horseradish peroxidase-conjugated goat anti-mouse IgG Fcγ-specific antibodies (Jackson ImmunoResearch) for 1 hour at RT, followed by a ready-to-use solution of TMB substrate (lnvitrogen) for colorimetric detection. After adding 1 M H₂SO₄, optical densities was measured at a wavelength of 450 nm (reference wavelength of 655 nm) using a microplate reader (BioRad).

[4] = molecular target: T3, 'truncated (tc) CRD4' construct of human CD134 (amino acids 147-277 linked to signal peptide amino acids 1-28) (human, UniProt P43489 147-277); experiment: flow cytometry on 293-F cells transiently transfected with the construct, PE goat anti-mouse IgG (Fcγ) [cont.]
T3 construct: also called truncated CRD4
T3 sequence: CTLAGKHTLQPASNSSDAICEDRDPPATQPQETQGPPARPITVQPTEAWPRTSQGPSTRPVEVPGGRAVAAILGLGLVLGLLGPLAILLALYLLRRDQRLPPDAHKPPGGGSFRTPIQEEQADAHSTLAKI
Experimental: (§2) After 48-72 h, surface human CD134 expression on transfected cells was analyzed by FACS analysis. To this end, transfected cells were harvested and put at 1-2×10⁶ cells/mL in ice-chilled PBS/BSA/NaN₃. […] After extensive washing in PBS/BSA/NaN₃, cells were subsequently incubated with 1:200 diluted PE-conjugated goat anti-mouse IgG (Fcγ specific) antibodies (Jackson ImmunoResearch) for 30 minutes at 4° C. After extensive washing in PBS/BSA/NaN₃, cells were fixed in 2% formaldehyde in PBS/BSA/NaN₃ for 30 minutes at 4° C.

[5] = molecular target: T4, human CD134-derived peptide (truncated CRD3 A1-module-CRD4 subdomain A1-module, amino acids 108-146) (human); experiment: ELISA, plate coated with 10 ng/well huCD134 peptide, HRP goat anti-mouse IgG Fcγ, n=1
T4 construct: Synthesized by Pepscan Presto; coated on ELISA plates at 10 ng/well
T4 peptide: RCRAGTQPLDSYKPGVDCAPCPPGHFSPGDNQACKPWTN
Experimental: as §1

[6] = molecular target: T4, human CD134-derived peptide (truncated …); experiment: ELISA, plate coated with 10 ng/well huCD134 peptide, HRP goat anti-human IgG Fcγ, n=1
Experimental: as §1, with “anti-human” for “anti-mouse”, “(invitrogen)” for “(lnvitrogen)”

[7] = molecular target: T2, human fibronectin-derived control …; experiment: ELISA, plate coated with 10 ng/well control peptide, HRP goat anti-human IgG Fcγ, n=1
Experimental: as §1, with “anti-human” for “anti-mouse”, “(invitrogen)” for “(lnvitrogen)”

[8] = molecular target: T3, 'truncated (tc) CRD4' construct of …; experiment: flow cytometry on 293-F cells transiently transfected with the construct, PE goat anti-human IgG (Fcγ) [cont.]
Experimental: as §2, with “PBS/BSA/NaN3.” for “PBS/BSA/NaN₃.”, “anti-human” for “anti-mouse”

[9] = molecular target: T1, human CD134 (full-length, on cells); experiment: flow cytometry, PHA-stimulated human CD4 positive T lymphocytes
Experimental: PHA-stimulated (at 10 μg/mL for 1 day; see above) human CD134 expressing T lymphocytes were generated. Cells were harvested and put at 1-2×10⁶ cells/mL in ice-chilled PBS/BSA/NaN3. […] After extensive washing in PBS/BSA/NaN₃, cells were subsequently incubated with 1:50 diluted FITC-conjugated mouse anti-human IgG4 antibodies (Sigma) for 30 minutes at 4° C. […] After extensive washing in PBS/BSA/NaN₃, cells were fixed in 2% formaldehyde in PBS/BSA/NaN₃ for 30 minutes at 4° C.

commercially available mouse anti-human CD134 antibody clone ACT35 (BD Biosciences)
saturating concentration [1]: 5 µg/mL
EC50 [2]: 2.5 µg/mL

B1: mouse anti-human CD134 monoclonal antibody clone 12H3 (antibody, mouse IgG1, V domains shown)
VH: EVQLQQSGPELVKPGASVKISCKTSGYTFKDYTMHWVKQSHGKSLEWIGGIYPNNGGSTYNQNFKDKATLTVDKSSSTAYMEFRSLTSEDSAVYYCARMGYHGPHLDFDVWGAGTTVTVSP
VL: DIVMTQSHKFMSTSLGDRVSITCKASQDVGAAVAWYQQKPGQSPKLLIYWASTRHTGVPDRFTGGGSGTDFTLTISNVQSEDLTDYFCQQYINYPLTFGGGTKLEIKR
notes: also called m12H3
binding result [3]: no binding (tested: 50 µg/mL)
binding result [4]: no binding (tested: 20.0 µg/mL)
binding result [5]: binds
EC50 [2]: 0.5 µg/mL

B2: chimeric human IgG4κ anti-human CD134 monoclonal antibody clone 12H3 (antibody, V domains shown)
VH: B1 VH
VL: B1 VL
binding result [6]: binds
binding result [7]: no binding (tested: 50 µg/mL)
binding result [8]: no binding (tested: 20.0 µg/mL)

B3: mouse anti-human CD134 monoclonal antibody clone 20E5 (antibody, mouse IgG1, V domains shown)
VH: EVQLQQSGPELVKPGASVKMSCKASGYTFTSYVMHWVKQKPGQGLEWIGYINPYNDGTKYNEKFKGKATLTSDKSSSTAYMELSSLTSEDSAVYYCANYYGSSLSMDYWGQGTSVTVSS
VL: DIQMTQTTSSLSASLGDRVTISCRASQDISNYLNWYQQKPDGTVKLLIYYTSRLHSGVPSRFSGSGSGTDYSLTISNLEQEDIATYFCQQGNTLPWTFGGGTKLEIKR
notes: also called m20E5
EC50 [2]: 2.5 µg/mL

B4: chimeric human IgG4κ anti-human CD134 antibody clone 20E5 (antibody, V domains shown)
VH: B3 VH
VL: B3 VL
notes: also called hu20E5
EC50 [9]: ~1 µg/mL
